Experimental data from the supplement of paper PMC7125110.
± gives the standard error. Fewer inactive variants are shown than the library holds.

B1: glmS ribozyme (parent)
chain: AUAAAAGCGCCAGAACUACAGAAAUGUAGUUGACGAGGAGGAGGUUUAUCGAAUUUUCGGCGGAUGCCUCCAAA

What was measured:
Conditions in all cases: with glucosamine-6-phosphate
glucosamine-6-phosphate [1] = variants of: B1; experiment: self-cleavage kobs at 40 uM GlcN6P; higher = faster cleavage; RNA array
Summary of the method: (§1)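 Tiles of sequenced MiSeq chips were imaged over ~14 h at 37 °C. On them, barcoded ribozyme variants had been transcribed in situ by E. coli RNA polymerase and were tracked via a hybridised Cy3 probe while glucosamine-6-phosphate (40 μM to 10 mM) in HEPES/KCl/Mg(OAc)2 buffer flowed in. Per-tile medians, normalised to baseline and to non-cleaving reference variants, were fit to one- or two-exponential decays for kobs, and weighted Michaelis–Menten fits gave kcat and KM.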

glucosamine-6-phosphate [2] = variants of: B1; experiment: self-cleavage kobs at 2500 uM GlcN6P; higher = faster cleavage; RNA array
Summary of the method: as §1

glucosamine-6-phosphate [3] = variants of: B1; experiment: self-cleavage kobs at 10000 uM GlcN6P; higher = faster cleavage; RNA array
Summary of the method: as §1

glucosamine-6-phosphate [4] = variants of: B1; experiment: self-cleavage kobs at 160 uM GlcN6P; higher = faster cleavage; RNA array
Summary of the method: as §1

glucosamine-6-phosphate [5] = variants of: B1; experiment: self-cleavage kobs at 640 uM GlcN6P; higher = faster cleavage; RNA array
Summary of the method: as §1

| Variant | self-cleavage kobs at 40 uM GlcN6P (glucosamine-6-phosphate [1]) [s⁻¹] | self-cleavage kobs at 2500 uM GlcN6P (glucosamine-6-phosphate [2]) [s⁻¹] | self-cleavage kobs at 10000 uM GlcN6P (glucosamine-6-phosphate [3]) [s⁻¹] | self-cleavage kobs at 160 uM GlcN6P (glucosamine-6-phosphate [4]) [s⁻¹] | self-cleavage kobs at 640 uM GlcN6P (glucosamine-6-phosphate [5]) [s⁻¹] |
| --- | --- | --- | --- | --- | --- |
| A12C A14C C70U | < 1e-05 | 9.06e-05 ± 1.4e-05 | 8.48e-05 ± 1.8e-05 |  |  |
| C11G C58U | < 1e-05 |  | < 1e-05 | < 1e-05 |  |
| A12G G41U A52G U54A | < 1e-05 |  |  |  |  |
| A12U G32C C67U | < 1e-05 |  |  |  |  |
| A12U U54C | 0.00204 ± 0.00025 | 0.0157 ± 0.0029 | 0.0931 ± 0.024 | 0.00477 ± 0.00085 | 0.0165 ± 0.0024 |
| A12U G29A U56C | 0.000118 ± 2.9e-05 | 0.0018 ± 0.00058 |  |  | 0.000685 ± 0.00022 |
| A12U C68G C70G | < 1e-05 |  |  |  |  |
| C11G A52C | < 1e-05 | < 1e-05 | < 1e-05 | < 1e-05 | < 1e-05 |
| A12G C58U C61U | < 1e-05 |  |  |  |  |
| C11G U56G A64U | < 1e-05 | < 1e-05 |  | < 1e-05 |  |
| C11A G29U C50G | 6.35e-05 ± 1.7e-05 | 5.28e-05 ± 2.3e-05 |  | 0.000296 ± 0.00011 |  |
| C11U G41C U45A C71G | < 1e-05 | < 1e-05 |  | < 1e-05 |  |
| C11G G13U | < 1e-05 | < 1e-05 | < 1e-05 | < 1e-05 | < 1e-05 |
| C11G G38U | < 1e-05 |  | < 1e-05 | < 1e-05 | < 1e-05 |
| C11A C34G G43C G51U G60C | < 1e-05 |  |  |  | < 1e-05 |
| C11G A15G A53C | < 1e-05 | < 1e-05 |  |  |  |
| A12C U46C C50G G63U C67G C68U | 0.000202 ± 7.2e-05 |  | 0.000454 ± 0.00012 |  |  |
| G13A G35A | < 1e-05 | < 1e-05 |  | < 1e-05 | < 1e-05 |
| A12U U45C | 0.000226 ± 3.6e-05 | 0.00428 ± 0.0016 | 0.00628 ± 0.001 |  |  |
| A12C U56G C68A C70A | < 1e-05 |  |  |  |  |
| C11G A39G U46G C61U U65C C68A | < 1e-05 |  | < 1e-05 |  |  |
| C11A G32C | < 1e-05 |  |  |  |  |
| G13A U47A G60U | < 1e-05 |  | < 1e-05 | < 1e-05 | < 1e-05 |

| Variant | self-cleavage kobs at 40 uM GlcN6P (glucosamine-6-phosphate [1]) [s⁻¹] | self-cleavage kobs at 2500 uM GlcN6P (glucosamine-6-phosphate [2]) [s⁻¹] | self-cleavage kobs at 10000 uM GlcN6P (glucosamine-6-phosphate [3]) [s⁻¹] | self-cleavage kobs at 160 uM GlcN6P (glucosamine-6-phosphate [4]) [s⁻¹] | self-cleavage kobs at 640 uM GlcN6P (glucosamine-6-phosphate [5]) [s⁻¹] |
| --- | --- | --- | --- | --- | --- |
| C11G A36G | < 1e-05 | < 1e-05 | < 1e-05 | < 1e-05 | < 1e-05 |
| G13A U45C A64G | < 1e-05 |  |  |  |  |
| C11G G37C G40U G51A U65C | < 1e-05 |  | < 1e-05 |  |  |
| G13A A33G | < 1e-05 |  |  |  | < 1e-05 |
| C11G A12C G38A | < 1e-05 |  |  |  |  |
| C11U A42C U56A C68A | < 1e-05 |  | < 1e-05 |  |  |
| C11G U69G | 3.62e-05 ± 1.4e-05 | 8.88e-05 ± 1.6e-05 |  | 0.000125 ± 2.3e-05 | 0.000184 ± 3.4e-05 |
| G13A C16A A52U | < 1e-05 | < 1e-05 | < 1e-05 |  |  |
| C11G C16A G38C | < 1e-05 |  | < 1e-05 | < 1e-05 |  |
| A12U U54A U69A | 0.000126 ± 4.4e-05 | 0.000458 ± 9.4e-05 | 0.000322 ± 6.8e-05 | 0.000159 ± 4.6e-05 | 0.000125 ± 2.7e-05 |
| C11U A36G C58U C67G | 4.33e-05 ± 2.1e-05 |  |  |  |  |
| G13C G40U A53U G59U | < 1e-05 |  | < 1e-05 |  |  |
| A12U G41C C58A | < 1e-05 | < 1e-05 | < 1e-05 |  |  |
| C11A G40U G41U G60C U65C | < 1e-05 |  | < 1e-05 |  |  |
| G13C A36G A39U | < 1e-05 | < 1e-05 |  |  | < 1e-05 |
| G13C A36C U46G C68A | < 1e-05 |  | < 1e-05 |  |  |
| A12U G29U G35C U49A C70A C71G | < 1e-05 |  |  | < 1e-05 |  |
| A12U G44U U57A G59A | < 1e-05 |  | < 1e-05 |  |  |
| A12U G41U C61U | < 1e-05 | < 1e-05 | < 1e-05 | < 1e-05 | < 1e-05 |
| G13C A48U C70G | < 1e-05 |  | < 1e-05 |  |  |
| A12U A53U | 0.00177 ± 0.00024 | 0.0274 ± 0.007 | 0.112 ± 0.036 | 0.00421 ± 0.00071 | 0.0159 ± 0.0029 |
| C11G U31A | < 1e-05 |  |  | < 1e-05 | < 1e-05 |
| C11A G35A U55A G60U U65A C68G | 0.00461 ± 0.0018 |  | 5.33e-05 ± 1.7e-05 |  |  |
